Source: patent US20120058906A1
Values belong to the substance of their own block, whether it stands above or below them.

Key:
[1] = target: rHuman P-Cadherin/Fc Chimera, CF (R&D Systems Cat#861-PC) (human) (UniProt P22223); assay: MSD ECL multi-spot plate; Fab 4.375 nM; blank spot 305
[2] = target: rHuman P-Cadherin/Fc Chimera, CF (R&D Systems Cat#861-PC) (human) (UniProt P22223); assay: MSD ECL multi-spot plate; Fab 70 nM; blank spot 635
[3] = target: rHuman Notch-1/Fc Chimera, CF (R&D Systems Cat#3647-TK) (human) (UniProt P46531); assay: MSD ECL multi-spot assay, antigen spotted on plate, Fab 0.28 uM; blank spot 1773
[4] = target: rHuman HGF R/c-MET/Fc Chimera, CF (R&D Systems Cat#358-MT/CF) (human) (UniProt P08581); assay: as above
[5] = target: rHuman CD44/Fc Chimera, CF (R&D Systems Cat#3660-CD) (human) (UniProt P16070); assay: as above
[6] = target: rHuman IGF-1 sR (IGF-1 sR), CF (R&D Systems Cat#391-GR) (human) (UniProt P08069); assay: as above
[7] = target: rHuman ErbB2/Fc Chimera, CF (R&D Systems Cat#1129-ER) (human) (UniProt P04626); assay: as above
[8] = target: rHuman P-Cadherin/Fc Chimera, CF (R&D Systems Cat#861-PC) (human) (UniProt P22223); assay: MSD ECL multi-spot plate; Fab 280 nM; blank spot 1691
[9] = target: rHuman P-Cadherin/Fc Chimera, CF (R&D Systems Cat#861-PC) (human) (UniProt P22223); assay: MSD ECL multi-spot plate; Fab 17.5 nM; blank spot 304
[10] = target: rHuman Notch-1/Fc Chimera, CF (R&D Systems Cat#3647-TK) (human) (UniProt P46531); assay: ECL (MSD Multi-Spot) titration, antigen spotted on plate; Fab 0.0624 µM; blank spot 960
[11] = target: rHuman HGF R/c-MET/Fc Chimera, CF (R&D Systems Cat#358-MT/CF) (human) (UniProt P08581); assay: as above
[12] = target: rHuman CD44/Fc Chimera, CF (R&D Systems Cat#3660-CD) (human) (UniProt P16070); assay: as above
[13] = target: rHuman Erythropoietin R/Fc Chimera, CF (R&D Systems Cat#963-ER) (human) (UniProt P19235); assay: as above
[14] = target: rHuman EGF R/Fc Chimera, CF (R&D Systems Cat#344-ER) (human) (UniProt P00533); assay: as above
[15] = target: Recombinant Human DLL4 (R&D Systems Cat#1506-D4/CF) (human) (UniProt Q9NR61); assay: as above
[16] = target: rHuman ErbB2/Fc Chimera, CF (R&D Systems Cat#1129-ER) (human) (UniProt P04626); assay: as above
[17] = target: rHuman Notch-1/Fc Chimera, CF (R&D Systems Cat#3647-TK) (human) (UniProt P46531); assay: MSD ECL multi-spot assay, antigen spotted on plate, Fab […]; blank spot 1129
[18] = target: rHuman HGF R/c-MET/Fc Chimera, CF (R&D Systems Cat#358-MT/CF) (human) (UniProt P08581); assay: as above
[19] = target: rHuman CD44/Fc Chimera, CF (R&D Systems Cat#3660-CD) (human) (UniProt P16070); assay: as above
[20] = target: rHuman Erythropoietin R/Fc Chimera, CF (R&D Systems Cat#963-ER) (human) (UniProt P19235); assay: as above
[21] = target: rHuman EGF R/Fc Chimera, CF (R&D Systems Cat#344-ER) (human) (UniProt P00533); assay: as above
[22] = target: Recombinant Human DLL4 (R&D Systems Cat#1506-D4/CF) (human) (UniProt Q9NR61); assay: as above
[23] = target: rHuman ErbB2/Fc Chimera, CF (R&D Systems Cat#1129-ER) (human) (UniProt P04626); assay: as above
[24] = target: rHuman Notch-1/Fc Chimera, CF (R&D Systems Cat#3647-TK) (human) (UniProt P46531); assay: ECL (MSD Multi-Spot) titration, antigen spotted on plate; Fab […]; blank spot 4357
[25] = target: rHuman HGF R/c-MET/Fc Chimera, CF (R&D Systems Cat#358-MT/CF) (human) (UniProt P08581); assay: as above
[26] = target: rHuman CD44/Fc Chimera, CF (R&D Systems Cat#3660-CD) (human) (UniProt P16070); assay: as above
[27] = target: rHuman Erythropoietin R/Fc Chimera, CF (R&D Systems Cat#963-ER) (human) (UniProt P19235); assay: as above
[28] = target: rHuman EGF R/Fc Chimera, CF (R&D Systems Cat#344-ER) (human) (UniProt P00533); assay: as above
[29] = target: Recombinant Human DLL4 (R&D Systems Cat#1506-D4/CF) (human) (UniProt Q9NR61); assay: as above
[30] = target: rHuman ErbB2/Fc Chimera, CF (R&D Systems Cat#1129-ER) (human) (UniProt P04626); assay: as above
[31] = target: rHuman Notch-1/Fc Chimera, CF (R&D Systems Cat#3647-TK) (human) (UniProt P46531); assay: ECL (MSD Multi-Spot) titration, antigen spotted on plate; Fab 0.312 µM; blank spot 1977
[32] = target: rHuman HGF R/c-MET/Fc Chimera, CF (R&D Systems Cat#358-MT/CF) (human) (UniProt P08581); assay: as above
[33] = target: rHuman CD44/Fc Chimera, CF (R&D Systems Cat#3660-CD) (human) (UniProt P16070); assay: as above
[34] = target: rHuman Erythropoietin R/Fc Chimera, CF (R&D Systems Cat#963-ER) (human) (UniProt P19235); assay: as above
[35] = target: rHuman EGF R/Fc Chimera, CF (R&D Systems Cat#344-ER) (human) (UniProt P00533); assay: as above
[36] = target: Recombinant Human DLL4 (R&D Systems Cat#1506-D4/CF) (human) (UniProt Q9NR61); assay: as above
[37] = target: rHuman ErbB2/Fc Chimera, CF (R&D Systems Cat#1129-ER) (human) (UniProt P04626); assay: as above

rHuman Erythropoietin R/Fc Chimera, CF (R&D Systems Cat#963-ER) (human), sequence (P19235 25-250, change not shown): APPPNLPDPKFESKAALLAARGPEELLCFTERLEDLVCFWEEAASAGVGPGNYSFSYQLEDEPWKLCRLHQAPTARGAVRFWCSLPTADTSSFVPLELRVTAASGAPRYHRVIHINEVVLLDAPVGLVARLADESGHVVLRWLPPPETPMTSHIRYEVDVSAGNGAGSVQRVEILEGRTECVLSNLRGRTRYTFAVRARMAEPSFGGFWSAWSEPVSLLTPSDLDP

ECL signal [1]: 469 ECL signal | ECL signal [2]: 1820 ECL signal | ECL signal [3]: 5280 | ECL signal [4]: 5180 | ECL signal [5]: 4560 | ECL signal [6]: 4640 | ECL signal [7]: 4310 | ECL signal [8]: 5400 ECL signal | ECL signal [9]: 949 ECL signal
Substance: Fab VH1-46_IGHD2-15*01_IGHJ2*01 & L12_IGKJ1*01

ECL signal [10]: 2350 | ECL signal [11]: 2450 | ECL signal [12]: 2110 | ECL signal [13]: 2680 | ECL signal [14]: 2420 | ECL signal [15]: 2580 | ECL signal [16]: 2150 | ECL signal [17]: 3950 | ECL signal [18]: 3120 | ECL signal [19]: 2280 | ECL signal [20]: 4130 | ECL signal [21]: 2500 | ECL signal [22]: 3770 | ECL signal [23]: 2450 | ECL signal [24]: 9450 | ECL signal [25]: 10300 | ECL signal [26]: 7600 | ECL signal [27]: 9480 | ECL signal [28]: 7830 | ECL signal [29]: 10900 | ECL signal [30]: 7580 | ECL signal [31]: 4460 | ECL signal [32]: 4690 | ECL signal [33]: 4170 | ECL signal [34]: 5020 | ECL signal [35]: 4330 | ECL signal [36]: 5480 | ECL signal [37]: 3660
Substance: Fab VH1-46_IGHD7-27*01_IGHJ2*01 & L6_IGKJ1*01
